# Measured values reported in patent publication US20220040297A1 (Chugai, published 2022).
# Residue numbers refer to the chain shown, from its start.
# B1: GLS3000 S27aN (antibody, name in Kabat numbering, V domains shown)
# VH: QVQLVESGGGVVQPGRSLRLSCAASGFTFSNAWMHWVRQAPGKGLEWVAQIKAKSNNYATYYAESVKGRFTISRDDSKNSLYLQMNSLKTEDTAVYYCRYVHYGAYYGVDAWGQGTTVTVSS
# VL: DIVMTQSPLSLPVTPGEPASISCRSSQNLVHSNRNTYLHWYQQKPGQAPRLLIYKVSNRFSGVPDRFSGSGSGTDFTLKISRVEAEDVGVYYCGQGTQVPYTFGQGTKLEIK
# notes: one-arm format as m2
# B2: GLS3000 S52P (antibody, name in Kabat numbering, V domains shown)
# VH: B1 VH
# VL: B1 VL with N28S, S57P
# notes: one-arm format as m2
# B3: GLS3000 S27eQ (antibody, name in Kabat numbering, V domains shown)
# VH: B1 VH
# VL: B1 VL with N28S, S32Q
# notes: one-arm format as m2
# B4: GLS3000 S56K (antibody, name in Kabat numbering, V domains shown)
# VH: B1 VH
# VL: B1 VL with N28S, S61K
# notes: one-arm format as m2
# B5: GLS3000 S52Q (antibody, name in Kabat numbering, V domains shown)
# VH: B1 VH
# VL: B1 VL with N28S, S57Q
# notes: one-arm format as m2
# B6: GLS3000 S27eD (antibody, name in Kabat numbering, V domains shown)
# VH: B1 VH
# VL: B1 VL with N28S, S32D
# notes: one-arm format as m2
# B7: GLS3000 S27eL (antibody, name in Kabat numbering, V domains shown)
# VH: B1 VH
# VL: B1 VL with N28S, S32L
# notes: one-arm format as m2
# B8: GLS3000 S27eH (antibody, name in Kabat numbering, V domains shown)
# VH: B1 VH
# VL: B1 VL with N28S, S32H
# notes: one-arm format as m2
# B9: GLS3000 S27eR (antibody, name in Kabat numbering, V domains shown)
# VH: B1 VH
# VL: B1 VL with N28S, S32R
# notes: one-arm format as m2
# B10: GLS3000 S56V (antibody, name in Kabat numbering, V domains shown)
# VH: B1 VH
# VL: B1 VL with N28S, S61V
# notes: one-arm format as m2
# B11: GLS3000 S56M (antibody, name in Kabat numbering, V domains shown)
# VH: B1 VH
# VL: B1 VL with N28S, S61M
# notes: one-arm format as m2
# B12: GLS3000 S27aY (antibody, name in Kabat numbering, V domains shown)
# VH: B1 VH
# VL: B1 VL with N28Y
# notes: one-arm format as m2
# B13: GLS3000 S52D (antibody, name in Kabat numbering, V domains shown)
# VH: B1 VH
# VL: B1 VL with N28S, S57D
# notes: one-arm format as m2
# B14: GLS3000 S56Q (antibody, name in Kabat numbering, V domains shown)
# VH: B1 VH
# VL: B1 VL with N28S, S61Q
# notes: one-arm format as m2
# B15: GLS3000 S56I (antibody, name in Kabat numbering, V domains shown)
# VH: B1 VH
# VL: B1 VL with N28S, S61I
# notes: one-arm format as m2
# B16: GLS3000 S52Y (antibody, name in Kabat numbering, V domains shown)
# VH: B1 VH
# VL: B1 VL with N28S, S57Y
# notes: one-arm format as m2
# B17: GLS3000 S52A (antibody, name in Kabat numbering, V domains shown)
# VH: B1 VH
# VL: B1 VL with N28S, S57A
# notes: one-arm format as m2
# B18: GLS3000 S27eK (antibody, name in Kabat numbering, V domains shown)
# VH: B1 VH
# VL: B1 VL with N28S, S32K
# notes: one-arm format as m2
# B19: GLS3000 S27eF (antibody, name in Kabat numbering, V domains shown)
# VH: B1 VH
# VL: B1 VL with N28S, S32F
# notes: one-arm format as m2
# B20: GLS3000 S56P (antibody, name in Kabat numbering, V domains shown)
# VH: B1 VH
# VL: B1 VL with N28S, S61P
# notes: one-arm format as m2
# B21: GLS3000 S27eW (antibody, name in Kabat numbering, V domains shown)
# VH: B1 VH
# VL: B1 VL with N28S, S32W
# notes: one-arm format as m2
# B22: GLS3000 S27eI (antibody, name in Kabat numbering, V domains shown)
# VH: B1 VH
# VL: B1 VL with N28S, S32I
# notes: one-arm format as m2
# B23: GLS3000 S27eN (antibody, name in Kabat numbering, V domains shown)
# VH: B1 VH
# VL: B1 VL with N28S, S32N
# notes: one-arm format as m2
# B24: GLS3000 S56L (antibody, name in Kabat numbering, V domains shown)
# VH: B1 VH
# VL: B1 VL with N28S, S61L
# notes: one-arm format as m2
# B25: GLS3000 S27eM (antibody, name in Kabat numbering, V domains shown)
# VH: B1 VH
# VL: B1 VL with N28S, S32M
# notes: one-arm format as m2
# B26: GLS3000 S56W (antibody, name in Kabat numbering, V domains shown)
# VH: B1 VH
# VL: B1 VL with N28S, S61W
# notes: one-arm format as m2
# B27: GLS3000 S27eY (antibody, name in Kabat numbering, V domains shown)
# VH: B1 VH
# VL: B1 VL with N28S, S32Y
# notes: one-arm format as m2
# B28: GLS3000 S56A (antibody, name in Kabat numbering, V domains shown)
# VH: B1 VH
# VL: B1 VL with N28S, S61A
# notes: one-arm format as m2
# B29: GLS3000 S56N (antibody, name in Kabat numbering, V domains shown)
# VH: B1 VH
# VL: B1 VL with N28S, S61N
# notes: one-arm format as m2
# B30: GLS3000 S56E (antibody, name in Kabat numbering, V domains shown)
# VH: B1 VH
# VL: B1 VL with N28S, S61E
# notes: one-arm format as m2
# B31: GLS3000 S27eP (antibody, name in Kabat numbering, V domains shown)
# VH: B1 VH
# VL: B1 VL with N28S, S32P
# notes: one-arm format as m2
# B32: GLS3000 S27aP (antibody, name in Kabat numbering, V domains shown)
# VH: B1 VH
# VL: B1 VL with N28P
# notes: one-arm format as m2
# B33: GLS3000 S56R (antibody, name in Kabat numbering, V domains shown)
# VH: B1 VH
# VL: B1 VL with N28S, S61R
# notes: one-arm format as m2
# B34: GLS3000 S56D (antibody, name in Kabat numbering, V domains shown)
# VH: B1 VH
# VL: B1 VL with N28S, S61D
# notes: one-arm format as m2
# B35: GLS3000 S56T (antibody, name in Kabat numbering, V domains shown)
# VH: B1 VH
# VL: B1 VL with N28S, S61T
# notes: one-arm format as m2
# B36: GLS3000 S56F (antibody, name in Kabat numbering, V domains shown)
# VH: B1 VH
# VL: B1 VL with N28S, S61F
# notes: one-arm format as m2
# B37: GLS3000 S56H (antibody, name in Kabat numbering, V domains shown)
# VH: B1 VH
# VL: B1 VL with N28S, S61H
# notes: one-arm format as m2
# B38: GLS3000 S27eT (antibody, name in Kabat numbering, V domains shown)
# VH: B1 VH
# VL: B1 VL with N28S, S32T
# notes: one-arm format as m2
# B39: GLS3000 S56Y (antibody, name in Kabat numbering, V domains shown)
# VH: B1 VH
# VL: B1 VL with N28S, S61Y
# notes: one-arm format as m2
# B40: GLS3000 S56G (antibody, name in Kabat numbering, V domains shown)
# VH: B1 VH
# VL: B1 VL with N28S, S61G
# notes: one-arm format as m2
# B41: GLS3000 S27eV (antibody, name in Kabat numbering, V domains shown)
# VH: B1 VH
# VL: B1 VL with N28S, S32V
# notes: one-arm format as m2
# B42: GLS3000 S27eE (antibody, name in Kabat numbering, V domains shown)
# VH: B1 VH
# VL: B1 VL with N28S, S32E
# notes: one-arm format as m2
# B43: GLS3000 S27eG (antibody, name in Kabat numbering, V domains shown)
# VH: B1 VH
# VL: B1 VL with N28S, S32G
# notes: one-arm format as m2
# Biological target: CD3ε homodimer protein (human, UniProt P07766 23-126, limits assumed)
# Assay: SPR, immobilized CD3ε homodimer;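 also: biacore T200 surface plasmon resonance at 25 °C, antibody variants flowed as analytes over amine-coupled CD3ε homodimer on a CM4 chip, variant binding amount divided by that of GLS3000 antibody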
# Chain of CD3ε homodimer protein (P07766 23-126 limits assumed): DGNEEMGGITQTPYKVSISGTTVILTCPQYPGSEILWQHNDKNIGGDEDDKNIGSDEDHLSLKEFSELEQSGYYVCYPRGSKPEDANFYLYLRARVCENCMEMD
row,Binder,ratio of amounts bound (vs GLS3000)
1,B1,1.1
2,B2,0.33
3,B3,1.1
4,B4,1.46
5,B5,1.05
6,B6,0.69
7,B7,1.17
8,B8,1.23
9,B9,1.58
10,B10,0.95
11,B11,1.05
12,B12,1.1
13,B13,0.63
14,B14,1.04
15,B15,0.99
16,B16,1.12
17,B17,0.93
18,B18,1.59
19,B19,1.32
20,B20,0.95
21,B21,1.55
22,B22,1.07

row,Binder,ratio of amounts bound (vs GLS3000)
1,B23,1.16
2,B24,1.02
3,B25,1.23
4,B26,1.38
5,B27,1.2
6,B28,1.16
7,B29,0.92
8,B30,0.71
9,B31,1.26
10,B32,0.99
11,B33,1.36
12,B34,0.77
13,B35,0.97
14,B36,1.32
15,B37,1.05
16,B38,0.97
17,B39,1.46
18,B40,0.92
19,B41,1.08
20,B42,0.76
21,B43,1.04
